Data on 3 molecules can be found in article PMC12808597 (2025).

For assay [1], the target named is exendin-phe1 tetramethylrhodamine conjugate (tetramethylrhodamine (TMR) fluorophore (conjugation position shown in Figure 2A)).
The target in assay [2] is exendin-phe1 Cy5 conjugate (Cy5 fluorophore (conjugation position shown in Figure 2A)).
The target of assay [3] is exendin-asp3 tetramethylrhodamine conjugate (tetramethylrhodamine (TMR) fluorophore (conjugation position shown in Figure 2A)).
Assay [4] has as its target exendin-asp3 Cy5 conjugate (Cy5 fluorophore (conjugation position shown in Figure 2A)).

B1: GLP-1R endogenously expressed in INS-1 832/3 clonal rat β-cells (receptor)
chain: GPRPQGATVSLSETVQKWREYRHQCQRFLTEAPLLATGLFCNRTFDDYACWPDGPPGSFVNVSCPWYLPWASSVLQGHVYRFCTAEGIWLHKDNSSLPWRDLSECEESKQGERNSPEEQLLSLYIIYTVGYALSFSALVIASAILVSFRHLHCTRNYIHLNLFASFILRALSVFIKDAALKWMYSTAAQQHQWDGLLSYQDSLGCRLVFLLMQYCVAANYYWLLVEGVYLYTLLAFSVFSEQRIFKLYLSIGWGVPLLFVIPWGIVKYLYEDEGCWTRNSNMNYWLIIRLPILFAIGVNFLVFIRVICIVIAKLKANLMCKTDIKCRLAKSTLTLIPLLGTHEVIFAFVMDEHARGTLRFVKLFTELSFTSFQGFMVAVLYCFVNNEVQMEFRKSWERWRLERLNIQRDSSMKPLKCPTSSVSSGATVGSSVYAATCQNSCS
A word on the Kd: it is the constant that tells how readily two partners part at equilibrium. A low value points to tighter binding. On to B1, for which the Kd in assay [1] stood at 12.3 nM; in assay [2], 0.7 nM.

B2: mouse glucagon-like peptide-1 receptor, untagged (receptor)
chain: GPRPQGTTVSLSETVQKWREYRRQCQRFLTEAPLLATGLFCNRTFDDYACWPDGPPGSFVNVSCPWYLPWASSVLQGHVYRFCTAEGLWLHKDNSSLPWRDLSECEESKRGERNFPEEQLLSLYIIYTVGYALSFSALVIASAILVGFRHLHCTRNYIHLNLFASFILRALSVFIKDAALKWMYSTAAQQHQWDGLLSYQDSLGCRLVFLLMQYCVAANYYWLLVEGVYLYTLLAFSVFSEQRIFKLYLSIGWGVPLLFVIPWGIVKYLYEDEGCWTRNSNMNYWLIIRLPILFAIGVNFLIFIRVICIVVSKLKANLMCKTDIKCRLAKSTLTLIPLLGTHEVIFAFVMDEHARGTLRFIKLFTELSFTSFQGLMVAILYCFVNNEVQMEFRKCWERWRLEHLNIQRDCSMKPLKCPTSSVSSGATVGSSVYAATCQSSYS
In the case of B2, the Kd in assay [3] came out at 5.9 nM; in assay [1], 6.7 nM; in assay [4], 2.7 nM.

B3: human glucagon-like peptide-1 receptor, untagged (receptor)
chain: RPQGATVSLWETVQKWREYRRQCQRSLTEDPPPATDLFCNRTFDEYACWPDGEPGSFVNVSCPWYLPWASSVPQGHVYRFCTAEGLWLQKDNSSLPWRDLSECEESKRGERSSPEEQLLFLYIIYTVGYALSFSALVIASAILLGFRHLHCTRNYIHLNLFASFILRALSVFIKDAALKWMYSTAAQQHQWDGLLSYQDSLSCRLVFLLMQYCVAANYYWLLVEGVYLYTLLAFSVLSEQWIFRLYVSIGWGVPLLFVVPWGIVKYLYEDEGCWTRNSNMNYWLIIRLPILFAIGVNFLIFVRVICIVVSKLKANLMCKTDIKCRLAKSTLTLIPLLGTHEVIFAFVMDEHARGTLRFIKLFTELSFTSFQGLMVAILYCFVNNEVQLEFRKSWERWRLEHLHIQRDSSMKPLKCPTSSLSSGATAGSSMYTATCQASCS
For B3, the dissociation constant Kd in assay [1] stood at 18.5 nM; in assay [4] it was 2.8 nM.
